Test results reported in patent US20230303690A1 (published 2023).
Read-outs that look alike come from different tables or passages of the source.

Assays:
[1] = target: T1, human LAG3 expressed on cells (human, UniProt P18627 23-525); assay: cell-based or functional assay
T1 sequence (looked up): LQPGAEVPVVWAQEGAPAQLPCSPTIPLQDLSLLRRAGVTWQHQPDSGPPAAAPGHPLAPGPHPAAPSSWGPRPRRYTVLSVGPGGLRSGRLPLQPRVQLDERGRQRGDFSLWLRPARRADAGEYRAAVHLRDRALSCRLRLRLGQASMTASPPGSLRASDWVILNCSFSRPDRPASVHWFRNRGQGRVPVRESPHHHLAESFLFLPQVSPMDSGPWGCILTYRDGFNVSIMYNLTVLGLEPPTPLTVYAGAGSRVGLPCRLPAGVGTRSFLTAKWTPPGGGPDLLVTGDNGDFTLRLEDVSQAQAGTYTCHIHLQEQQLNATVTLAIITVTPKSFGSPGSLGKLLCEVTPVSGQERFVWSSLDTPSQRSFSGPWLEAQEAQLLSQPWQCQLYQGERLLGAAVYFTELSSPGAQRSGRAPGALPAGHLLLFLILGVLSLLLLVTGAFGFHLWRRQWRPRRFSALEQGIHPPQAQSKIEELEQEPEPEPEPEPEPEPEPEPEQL

[2] = target: T1, human LAG3 expressed on cells; assay: cell-based or functional assay; remark: listed apart in the source
[3] = target: T1, human LAG3 expressed on cells; assay: cell-based or functional assay; remark: listed apart in the source
[4] = target: T2, LAG3 Protein, Human, Recombinant (His Tag) (Sino Biological Catalog No. 16498-H08H) (human, UniProt P18627 23-450); assay: SPR binning on LAG3-His; competitor 1
T2 construct: Bought protein; also called hLAG3-His; LAG3-His; not shown: His tag
T2 sequence (looked up): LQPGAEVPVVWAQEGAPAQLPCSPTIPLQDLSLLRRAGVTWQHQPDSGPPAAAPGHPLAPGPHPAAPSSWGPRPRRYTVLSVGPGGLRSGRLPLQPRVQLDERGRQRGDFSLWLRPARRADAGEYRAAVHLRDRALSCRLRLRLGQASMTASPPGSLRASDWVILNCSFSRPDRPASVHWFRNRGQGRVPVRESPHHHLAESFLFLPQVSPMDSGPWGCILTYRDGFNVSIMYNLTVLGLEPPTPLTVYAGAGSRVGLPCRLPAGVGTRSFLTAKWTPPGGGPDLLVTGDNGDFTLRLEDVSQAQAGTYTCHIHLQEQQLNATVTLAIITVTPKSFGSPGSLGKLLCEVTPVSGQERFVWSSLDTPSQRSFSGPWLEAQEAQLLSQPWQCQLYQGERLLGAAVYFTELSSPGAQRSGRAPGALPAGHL
Experimental: (§1) The chip surface was regenerated after each cycle with 25 mM NaOH followed by HBS-EP wash provided in the kit.

[5] = target: T2, LAG3 Protein, Human, Recombinant (His …); assay: SPR binning on LAG3-His; competitor 17
Experimental: as §1

[6] = target: T2, LAG3 Protein, Human, Recombinant (His …); assay: SPR binning on LAG3-His; competitor 18
Experimental: as §1

[7] = target: T2, LAG3 Protein, Human, Recombinant (His …); assay: SPR binning on LAG3-His; competitor 20
Experimental: as §1

[8] = target: T2, LAG3 Protein, Human, Recombinant (His …); assay: SPR binning on LAG3-His; competitor 21
Experimental: as §1

[9] = target: T2, LAG3 Protein, Human, Recombinant (His …); assay: SPR binning on LAG3-His; competitor 24
Experimental: as §1

[10] = target: T2, LAG3 Protein, Human, Recombinant (His …); assay: SPR binning on LAG3-His; competitor 25
Experimental: as §1

[11] = target: T2, LAG3 Protein, Human, Recombinant (His …); assay: SPR binning on LAG3-His; competitor 27
Experimental: as §1

[12] = target: T2, LAG3 Protein, Human, Recombinant (His …); assay: SPR binning on LAG3-His; competitor 37
Experimental: as §1

[13] = target: T2, LAG3 Protein, Human, Recombinant (His …); assay: SPR binning on LAG3-His; competitor 73
Experimental: as §1

[14] = target: T2, LAG3 Protein, Human, Recombinant (His …); assay: SPR binning on LAG3-His; competitor BMS
Experimental: as §1

[15] = target: T2, LAG3 Protein, Human, Recombinant (His …); assay: SPR (Biacore), sdAb captured by anti-human Fc, LAG3-His analyte
Experimental: The binding of the single domain antibodies to recombinant human LAG3 protein (rhLAG3) was examined by Biacore™ assay. […] The coating was carried out according to the manufacturer’s instructions accompanying the kit (Catalog No. BR-1008-39, GE). […] The chip surface was regenerated after each cycle with 25 mM NaOH followed by HBS-EP wash provided in the kit.

B1: sdAb No. 18 (VHH)
VHH: QVQLVESGGGLVQPGGSLRLSCAASGFTLNEHAIGWFRRAPGKEREGVSCISSSDGSTYYHDSVKGRFNMSRDDAKNSVYLQMSSLKPEDTAIYYCAAALGRDCQGGQWKTSSWGQGTQVTVSS
notes: Fc of the tested form not described; also called sdAb 18; not shown: Fc part implied by anti-human Fc capture
- IL-2, % of BMS, at 0.005080526 ug/mL [1]: 7.39%
- IL-2, % of BMS, at 0.015241579 ug/mL [1]: 10.9%
- IL-2, % of BMS, at 0.045724737 ug/mL [1]: 12.9%
- IL-2, % of BMS, at 0.137174211 ug/mL [1]: 5.27%
- IL-2, % of BMS, at 0.411522634 ug/mL [1]: 6.53%
- IL-2, % of BMS, at 1.234567901 ug/mL [1]: 15.5%
- IL-2, % of BMS, at 3.703703704 ug/mL [1]: 35.1%
- IL-2, % of BMS, at 11.11111111 ug/mL [1]: 45.5%
- IL-2, % of BMS, at 33.33333333 ug/mL [1]: 61.7%
- IL-2, % of BMS, at 100 ug/mL [1]: 60.9%
- EC50 for IL-2 rescue, hLAG3 Jurkat T system [2]: 60.6 nM
- Efficacy (IL-2 production, BMS = 100%) [2]: 51.9%
- IL-2, % of BMS, at 0.005080526 ug/mL [3]: 7.39%
- IL-2, % of BMS, at 0.015241579 ug/mL [3]: 10.9%
- IL-2, % of BMS, at 0.045724737 ug/mL [3]: 12.9%
- IL-2, % of BMS, at 0.137174211 ug/mL [3]: 5.27%
- IL-2, % of BMS, at 0.411522634 ug/mL [3]: 6.53%
- IL-2, % of BMS, at 1.234567901 ug/mL [3]: 15.5%
- IL-2, % of BMS, at 3.703703704 ug/mL [3]: 35.1%
- IL-2, % of BMS, at 11.11111111 ug/mL [3]: 45.5%
- IL-2, % of BMS, at 33.33333333 ug/mL [3]: 61.7%
- IL-2, % of BMS, at 100 ug/mL [3]: 60.9%
- RU [4]: -9.5 RU
- RU [5]: -14.7 RU
- RU [6]: -9.1 RU
- RU [7]: -13.4 RU
- RU [8]: -11.4 RU
- RU [9]: -9.9 RU
- RU [10]: 274 RU
- RU [11]: -5.3 RU
- RU [12]: -8.5 RU
- RU [13]: -11.1 RU
- RU [14]: 26.9 RU
- koff [15]: 3.69e-07 s⁻¹
- kon [15]: 2.31e+06 M⁻¹ s⁻¹

B2: sdAb No. 24 (VHH)
VHH: QLQLVESGGGLVQPGGSLRLSCAASGFTLNEHAIGWFRQAPGKEREGVSCISSSDGSTYYHDSVKGRFTMSRDDAKNTVYLQMNSLKAEDTAIYYCAAALGRDCQGGQWKTSSWGQGTQVTVSS
notes: Fc of the tested form not described; also called sdAb 24; not shown: Fc part implied by anti-human Fc capture
- IL-2, % of BMS, at 0.005080526 ug/mL [1]: 10.7%
- IL-2, % of BMS, at 0.015241579 ug/mL [1]: 2.74%
- IL-2, % of BMS, at 0.045724737 ug/mL [1]: 3.44%
- IL-2, % of BMS, at 0.137174211 ug/mL [1]: 10.8%
- IL-2, % of BMS, at 0.411522634 ug/mL [1]: 1.26%
- IL-2, % of BMS, at 1.234567901 ug/mL [1]: 17.8%
- IL-2, % of BMS, at 3.703703704 ug/mL [1]: 34.9%
- IL-2, % of BMS, at 11.11111111 ug/mL [1]: 47.2%
- IL-2, % of BMS, at 33.33333333 ug/mL [1]: 57.7%
- IL-2, % of BMS, at 100 ug/mL [1]: 48.2%
- EC50 for IL-2 rescue, hLAG3 Jurkat T system [2]: 35.8 nM
- Efficacy (IL-2 production, BMS = 100%) [2]: 44.7%
- RU [4]: -8.8 RU
- RU [5]: -13.6 RU
- RU [6]: -11.2 RU
- RU [7]: -12.9 RU
- RU [8]: -12 RU
- RU [9]: -10.1 RU
- RU [10]: 33.2 RU
- RU [11]: -6.6 RU
- RU [12]: -8.5 RU
- RU [13]: -11.3 RU
- RU [14]: 30.5 RU
- Kd [15]: 0.038 nM
- koff [15]: 3.39e-05 s⁻¹
- kon [15]: 894000 M⁻¹ s⁻¹
